The record followed here is article PMC3206438, “Identification and characterization of PhbF: A DNA binding protein with regulatory role in the PHB metabolism of Herbaspirillum seropedicae SmR1” (BMC Microbiology, 2011).

As a reminder, the stoichiometry N is the number of molecules, sites or subunits per partner or assembly.

Data set [1] deals with His-PhbF (Herbaspirillum seropedicae SmR1). The data set is described as follows: EMSA. The conditions noted are these: apparent; 100 ng calf thymus DNA; tetramer concentration; EMSA: 10 mM Tris-HCl pH 7.5, 80 mM NaCl, 1 mM EDTA, 10 mM beta-mercaptoethanol, 5% glycerol, 20 nM DNA, 100 ng calf thymus DNA in 10 uL, 30 C 5 min; footprint: ….
Data set [2] deals with the molecule itself. The data set is described as follows: SEC; gel filtration chromatography of purified His-PhbF; apparent molecular weight 104.3 kDa; conditions not told in the main text (Additional file 1, Figure S2). Background: In gel filtration, larger molecules generally elute earlier.

For the molecule phaP1 promoter, the Kd in data set [1] was 150 nM. As to phbF promoter (EMSA), the Kd in data set [1] amounted to 450 nM.

B1: His-PhbF (H. seropedicae SmR1 PhbF protein fused to an N-terminal six-histidine tag) (natural protein, Herbaspirillum seropedicae SmR1, UniProt D8J0C9 1-188, looked up)
chain: MTTAKNSADRLIKKYPNRRLYDTQTSSYITLTDVKQLVLDNEEFTVVDAKSGDDLTRSILLQIILEEESHGVPMFSSGALSQIIRYYGHAMQGMMGNYLEKNIQTFIDIQNKLAENSKGFYEGKPFSPEMWTQFMNVQGPMMQGMMSNYIEQSKNLFIQMQEQMQSQTKNMFGTFPFGNPGAGPDQKK
notes: the phbF gene was amplified from the genome and cloned into pET-28a (pKADO3); The pET-28a vector residues between the His tag and the protein are not described; also called His-tag PhbF protein; source: E. coli BL21(DE3) carrying pKADO3, purified (Hi-Trap Chelating Ni2+ column); not shown: His6, N-terminal, kept
B1: in data set [2], the “stoichiometry N” value worked out at 4.
